From patent publication CN106749661A (UNIV BEIJING, dated 2017)

T1: PSMP真核蛋白 (human, UniProt Q1L6U9 36-139)
T1 construct: mature; Eukaryotically expressed secreted PSMP; The expression construct and any tags are not described; also called 重组PSMP真核蛋白; PSMP分泌蛋白
T1 sequence (looked up): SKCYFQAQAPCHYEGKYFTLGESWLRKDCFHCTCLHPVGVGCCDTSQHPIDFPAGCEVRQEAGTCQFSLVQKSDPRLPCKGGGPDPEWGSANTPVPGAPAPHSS

T2: PC3细胞内源性PSMP蛋白 (human, UniProt Q1L6U9 36-139, limits assumed)
T2 construct: Detected by Western blot and by immunocytochemistry in PC3 cells
T2 sequence (looked up): T1 sequence (looked up)

T3: PSMP蛋白 (human, UniProt Q1L6U9 36-139, limits assumed)
T3 sequence (looked up): T1 sequence (looked up)

B1: 抗PSMP的单克隆抗体3D5 (antibody, V domains shown)
VH: EVQLQQSGPELVKPGASVKISCKASGYSFTGYFMNWVMQSHGKSLEWIGRINPYNGDTFYNQKFKGKATLTVDKSSSTAHMELRSLASEDSAVYYCARGGDGYYAFAYWGQGTLVTVSA
VL: NIVMTQSPKSMSMSVGERVTLSCRASENVGTYVSWYQQKPEQSPKLLIYGASNRYTGVPDRFTGSGSATDFTLTISSVQAEDLADYHCGQSYSYMYTFGGGTKLEIKR
notes: Mouse hybridoma antibody, heavy chain IgG1, light chain kappa, purified from ascites on Protein G Sepharose; also called 鼠单抗3D5; 3D5中和抗体
B2: 共转染含有3D5重链和轻链基因的质粒的293T上清中表达的抗体 (antibody, V domains shown)
VH: B1 VH
VL: B1 VL
notes: It was tested as culture supernatant

How the values were obtained:
[1] = target: T1, PSMP真核蛋白; assay: ELISA
[2] = target: T2, PC3细胞内源性PSMP蛋白; assay: Western blot of PC3 cells
[3] = target: T3, PSMP蛋白; assay: cytometric bead array, rabbit polyclonal on beads, 3D5 at 5 μg/ml as detection antibody
[4] = target: T3, PSMP蛋白; assay: ELISA with 293T expression supernatant

Binder	binding result [1]	binding result [2]	binding result [3]	binding result [4]
B1	binds	binds	binds	
B2				binds
